Experiment: soluble on expression in E. coli; label from the status in PepcDB or PDB records

| Sequence | soluble on expression in E. coli |
| --- | --- |
| MSLRAVRLHAKWDPRPEFKLGPKDIEGKLTWLGSKVWRYPEVRVEEVPEPRIEKPTEIIIKVKACGICGSDVHMAQTDEEGYILYPGLTGFPVTLGHEFSGVVVEAGPEAINRRTNKRFEIGEPVCAEEMLWCGHCRPCAEGFPNHCENLNELGFNVDGAFAEYVKVDAKYAWSLRELEGVYEGDRLFLAGSLVEPTSVAYNAVIVRGGGIRPGDNVVILGGGPIGLAAVAILKHAGASKVILSEPSEVRRNLAKELGADHVIDPTKENFVEAVLDYTNGLGAKLFLEATGVPQLVWPQIEEVIWRARGINATVAIVARADAKIPLTGEVFQVRRAQIVGSQGHSGHGTFPRVISLMASGMDMTKIISKTVSMEEIPEYIKRLQTDKSLVKVTMLNEGHHHHHH | soluble |
| MDDSTLTELEAAAFRRLVAHLRERTDVQNIDLMNLAGFCRNCLSNWLKDAADAQGVAMSRDESREAVYGMPYETWKAKYQSTATPDQVEAFKKSHPHSH | not soluble |
| MTGIREGEKELSLLGSKTEYRNDYAPEVLEAFTNKHQENDYWVRFNCPEFTSLCPITGQPDFATIYINYIPDVKMVESKSLKLYLFSFRNHGAFHEDCVNIIMKDLIALMQPRYIEVWGDFTPRGGISIVPFCNYGKPGSRYELLAEKRMETHH | not soluble |
| SNAMEHKIVHVGDIPVANDKPFTLFAGMNVLESRDLAMQICEHYVKVTDKLGIPYVFKASFDKANRSSVHSYRGPGLEEGMKIFQELKETFGVKIITDVHTEAQAQPVADVVDVIQLPAFLARQTDLVEAMAKTGAVINVKKPQFMSPGQVGNIVEKFAECGNDKVILCERGSCHGYDNLVVDMLGFGVMKQASNGSPIIFDVTHSLQMRDPSGAASGGRREQTVELAKAGLATGIAGLFIEAHPNPDKARCDGPSALPLDKLEPFLAQMKALDDLIKSFAHIDIR | soluble |
| MATPDTSAAKMAGQDRQKLKVVAWLQNLVERLKGWTPGHCQKLFDEKELIQLCYRAREVFWKNNVKLELKAPVKICGDLHGQYEDLLALLELNGWPPETKYLFLGDYVDRGPFSIEVISLLFAYQVLHPDKVFLLRGNHESRPVNMQYGFFMECRKRFSNALYDAFQLAFYCMPLCAVVSDKIICMHGGISEDLVDLRQLDKVERPCDVPDIGVIADLTWADPDATIQMYAESQRGAGRVFGAEAVKKFLNTHHLELVVRAHQVVMDGYEFFADRQLVTIFSAPSYCGQMDNAAAVMTVDEELVCSFTVMRPDLKKDKEKKAAVGIVPN | not soluble |
| MEIPTAKPQKEHEFLNRIVGDWIMTASSGHEAYDPNDPEQVFIEKVRSIGGLWIIGEGTGKMPDGTSMTAVITVGFDPAKGNFVGTWVGSMMTNLWVYKGWLEEDGKTLTLEAEGPAFDGSGDTATYHDVLVLHDDNHRSFSGSVKQPDGTFKTFMTSEFRRKT | soluble |
| MKKIGIIGGGQLGKMMTLEAKKMGFYVIVLDPTPRSPAGQVADEQIVAGFFDSERIEDLVKGSDVTTYDLEHIDVQTLKKLYNEGYKIHPSPYTLEIIQDKFVQKEFLKKNGIPVPEYKLVKDLESDVREFGFPVVQKARKGGYDGRGVFIIKNEKDLENAIKGETYLEEFVEIEKELAVMVARNEKGEIACYPVVEMYFDEDANICDTVIAPARIEEKYSKIAREIATSVVEALEGVGIFGIEMFLTKQGEILVNEIAPRPHNSGHYTIEACVTSQFEQHIRAIMNLPLGSTELLIPAVMVNLLGEEGYYGKPALIGLEEALAIEGLSLHFYGKKETRPYRKMGHFTVVDRDVERALEKALRAKKILKVVSEEGAMCQG | soluble |
| MGSDKIHHHHHHMTFKNDVDGCSYPGILSASRSTDIPAFYAEWFSRRLRDGYVVWKSPFNQKCYSVCFEKAGGIVFWTKNPKPLMPFLDEVSELGYDYYFQFTVNDYESEGFEPNVPPLDERIETFRSLSQKLGKERVIWRFDPICLTRELDVEGIMARLRSIGECLKGYTEQLVISFVDVHAYTKVQRNIKTADGFCLREPSMEEQDELARRISSYAKEIGVSPSACGERRSFAHFGILPNKCIDGELFKRICRKGNIKLQKHLGTYIDQYSLLSPQKKDVTLCKDKGQRKECGCVESKDIGMYNTCNHMCVYCYANTSQRVVEKNRVLHDVNGESLIPTSRTVEE | not soluble |
| MGSDKIHHHHHHMLIKLNDYEKNITQKIKDLKNASGSHSPSIFTMAEQIPELNIKIDSCFLSNPYATALFLRYLKEELIDGQKLRSVLEFYPSQNSIIAKTVADFIGIDPKNVFIGNGAIEIIQAVMHNFVGKKIIVNIPTFSSYYEFAKSETNVVYYQLSKEDNYNLNIEHYLNFVKNENPDSVVLINPNNPDGGYINYEKLRYILSELKYVKNIIIDESFIHFAYENKDYNGINIEYLFKEFHNTIIIKSMSKDFGVAGIRIGYAIMSEDKIRGLLKNGYLWNSSGLSEYFLRLYVRKNFFDEYDKVRREYIQETQTFFRKLSGIKQFKVYPSMANFALVELLDGSSSTDFVAKMLIKYGIYMRTCNDKIGLEGEFIRIASRTLEENDMVLKSICDVFKE | not soluble |
| RSTDTFNYATYHTLEEIYDFLDLLVAENPHLVSKIQIGNTYEGRPIYVLKFSTGGSKRPAIWIDTGIHSREWVTQASGVWFAKKITQDYGQDAAFTAILDTLDIFLEIVTNPDGFAFTHSTNRMWRKTRSHTAGSLCIGVDPNRNWDAGFGLSGASSNPCSETYHGKFANSEVEVKSIVDFVKDHGNIKAFISIHSYSQLLMYPYGYKTEPVPDQDELDQLSKAAVTALASLYGTKFNYGSIIKAIYQASGSTIDWTYSQGIKYSFTFELRDTGRYGFLLPASQIIPTAKETWLALLTIMEHTLNHP | soluble |
| GPGSMKKELRVGVLISGRGSNLEALAKAFSTEESSVVISCVISNNAEARGLLIAQSYGIPTFVVKRKPLDIEHISTVLREHDVDLVCLAGFMSILPEKFVTDWHHKIINIHPSLLPSFKGLNAQEQAYKAGVKIAGCTLHYVYQELDAGPIIMQAAVPVLREDTAESLASRILAAEHVCYPKGVKLIAQDKIKLCDDGTVQCTGEDELFLFQENF | soluble |
| MLVKDFMTRNPITIAPETSFSEALKLMKQNKIKRLIVMKNEKIVGIVTEKDLLYASPSKATTLNIWELHYLLSKLKIEEIMTKDVVTVNENTPIEDAARIMEEKDISGLPVVDDAGRLVGIITQTDIFKVFVEIFGTKREGTIRYTMEMPDKPGELLEVAKRIYEAGGNIISIATLFEEGKDSYLATLRVENIDHEKFVKSLDEIDVKLLYYHSN | soluble |
| MGSDKIHHHHHHMSTVQDASSVGSLFGAEAAKTSKSGSSDTQDRFLSLLVAQMKNQDPLNPLDNAEVTSQMAQLSTVEGIENMNKSLEALASSMGASQMSQAANLIGHAVLVPGNAVGPGQLENLMGFELTRPADKVTLDIHDAGGNLVRSVDLGPRDAGVNVVAWDGLTGSGAVAPAGAYSFKVSAVQGGQAQSSIALNVGLVNSVSQNSEGVQLNLAGNGSVGYADIREIF | not soluble |
| MDVFELTKKTLLAVISESSSSDDYLEALAEIEGLVKHEAAATSFQLMERGKVRELAVPKPEFYNKRRKFEDFQEKTVFDWKSEFNLKNAKKVERWTVEEKEKREKQRCFIEVEHYKKKEYLNFLYPGVHYCTCPYFQSTVLQKQTNWICVHILAYYFAKNFGKIERIECKSEIVGLVKKIFIRSIFLEEKK | not soluble |
| MGSDKIHHHHHHMKHTQISRREFLKNIGMTGAGVLLAASPWLSAFSEAVNTSNEKCRLGVIGPGSRGRFLMSFLVQNPKVDIVALCDIYQPSIDEALKLAPKAKVYGDYRELLENNNIDAILVATPLSSHCKIVMDAFDAGKHVFCEKTIGFTMEECFRMYNKHRSTGKIFFTGQQRLFDPRYIKAMEMIHAGTFGEINAIRTFWYRNGDWRRPVPSANLERQINWRLYKEYSKGLMTELACHQLQIGSWALNKLPEKVMGHGAITYWKDGREVYDNVSCLYVFDDGVKMTFDSVISNQFYGLEEQIMGNLGTVEPEKGKYYFESIPPAPGFLQMINDWENKLFDTLPFAGTSWAPETANENKGELILGERPKSDGTSLLLEAFVEAVITRKQPARIAEEGYYASMLCLLGHQALQEEKTLYFPDEYKINYLNHQSKTSEAV | not soluble |

Source: the DeepSol protein solubility set
